{"source": "patent US20160326233A1", "target": "HBsAg on purified human serum HBV (virions used in the Tupaia hepatocyte neutralization assay) (Hepatitis B virus)", "experiment": "cell-based or functional assay"}
{"substance": "mouse monoclonal antibody MA18/7", "values": [{"measurement": "neutralization of HBV infection of primary Tupaia hepatocytes (newly produced HBsAg)", "value": 100, "unit": "µg/mL"}, {"measurement": "neutralization of HBV infection of primary Tupaia hepatocytes (newly produced HBsAg) (reciprocal dilution)", "value": 10}]}
